No end group written: not given here.
Assays:
Assay in all cases: cell-based or functional assay
YFP-degronSwitcha = target: T1, YFP-degronSwitcha
T1 sequence: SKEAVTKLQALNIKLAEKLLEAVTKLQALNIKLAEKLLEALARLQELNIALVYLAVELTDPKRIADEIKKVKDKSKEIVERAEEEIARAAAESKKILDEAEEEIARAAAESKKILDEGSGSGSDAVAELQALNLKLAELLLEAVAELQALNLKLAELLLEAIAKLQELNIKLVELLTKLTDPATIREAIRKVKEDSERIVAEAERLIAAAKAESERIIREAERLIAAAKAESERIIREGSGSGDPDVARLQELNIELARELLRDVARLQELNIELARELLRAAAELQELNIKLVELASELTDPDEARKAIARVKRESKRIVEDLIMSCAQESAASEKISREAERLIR

[1] = target: T2, dCas9-VP64-RFP-degronSwitcha
T2 sequence: T1 sequence

SynTF-RFP-degronSwitcha = target: SynTF-RFP-degronSwitcha

B1: Keya-BFP (designed binder, not shown: large carriers)
chain: EARKAIARVKRESKRIVEDAERLIREAAAASEKISREAERLIREAAAASEKISRE
modifications: not fully specified (C-terminus); also: linker to BFP not given here
B1 showed a YFP fluorescence at steady state, flow cytometry, S. cerevisiae (YFP-degronSwitcha) of under 73%, a decrease in RFP fluorescence at 31.25 nM E2, flow cytometry, S. cerevisiae [1] of 78% and a decrease in pTet7x-YFP reporter fluorescence at 31.25 nM E2, flow cytometry, S. cerevisiae [1] of 41%.

B2: keya-BFP-NLS (designed binder, not shown: large carriers)
chain: B1 chain
modifications: not fully specified (C-terminus); also: BFP and NLS sequences not given here
Binder B2 has a decrease in RFP fluorescence at 31.25 nM E2, flow cytometry, S. cerevisiae (SynTF-RFP-degronSwitcha) of 61% and a decrease in pSynTF-YFP reporter fluorescence at 31.25 nM E2, flow cytometry, S. cerevisiae (SynTF-RFP-degronSwitcha) of 82%.
